From PMC10508222, “Elucidation of the stereocontrol mechanisms of the chemical and biosynthetic intramolecular Diels–Alder cycloaddition for the formation of bioactive decalins” (RSC Advances, 2023)

B1: Phm7 (Pyrenochaetopsis sp.) (protein)
chain: MSEPTSSSSLDITSNCIIETPLQPSDFLPKSANLFPKFPERISVDSWELWEFDTFDTNGSVAFGCSLYRDARGVEQGGFHAEVNALWPDGTHWGETLYFAVSEVVENSDGTTGGKWLSKDGGSITFHIASDYTAAALDFNVPGKVSGTMELRNHANVSPTSNLPASDAEAQLCPGVYYTFPMGPVATSVTATFSSVGANGESRELFISSGYGGMVRGWSARPWPTFMNDAYYVVAQVGPYMLQILRTLGSVFVQHKPFAVARLYLDGSLVSAANTVVGDELTAHADDVKGDAVRLTKVQPDEKSQGLSGKFRDGNVGYVLEFAKKDSEHGWTFQISHKRAVWSEPTSAPGPDGTGKSGWIEAISGGAKGENYEGHGFGGQLQIPVP

Columns and labels:
Experiment in all cases: purified protein, by the assay type
Conditions in all cases: pH 7.5; 25.0 °C
[1] = tested on: C/C=C/C=C/C=C/C[C@@H](C)CC/C=C(\C)C(O)=C1C(=O)C(CO)N(C)C1=O
[2] = tested on: C/C=C/C=C/C=C/C[C@H](C)CC/C=C(\C)C(O)=C1C(=O)C(CO)N(C)C1=O
[3] = substrate: C/C=C/C=C/C=C/C[C@@H](C)CC/C=C(\C)C(O)=C1C(=O)C(CO)N(C)C1=O; remark: listed apart in the source

Molecule | Km [1] | kcat [1] | kcat/Km [1] | Km [2] | kcat [2] | kcat/Km [2] | Km [3] | kcat [3] | kcat/Km [3]
Fsa2 (Fusarium sp. FN080326) | 25.07 ± 2.98 µM | 1.01 ± 0.048 s⁻¹ | 40200 M⁻¹ s⁻¹ | 18.07 ± 4.21 µM | 84.2 ± 6.58 s⁻¹ | 4.67e+06 M⁻¹ s⁻¹ | – | – | –
B1 | – | – | – | – | – | – | 38.21 ± 8.23 µM | 1.98 s⁻¹ | 51800 M⁻¹ s⁻¹
